Assay results from US8114412B2, “T. cruzi-derived neurotrophic agents and methods of use therefor” (priority 1999, dated 2012).

Key:
Trans-sialidase assay = type: biochemical
Protocol: The trans-sialidase assay was performed as described (Scudder et al., J. Biol. Chem. 268:9886-9891 (1993)) with slight modifications. Various amounts of intact enzyme or enzyme fragments were added to 50 mM PBS, Ph 7.2, containing 15% fetal calf serum and […] of [^14C]N-acetyllactosamine (4×10^5 dpm), 50 μg BSA and 0.02% NaN3 in a volume of 60 μl. After incubation for a predetermined amount of time at room temperature, the reaction mixture was diluted to 1.0 ml with distilled water and applied to a column containing 1.0 ml Q-Sepharose equilibrated with water. Sialylated product was eluted with 1 M NaCi and quantified by scintillation counting.
TS enzymatic activity was measured by the sialylation of the acceptor ^14C-labeled N-acetyllactosamine on anion exchange resins (Scudder, P. et. al., J. Biol. Chem. 268:9886-9891 (1993)). Recombinant TSA-1, was expressed on insect sf9 cells and purified from serum-free medium by ion exchange chromatography (monoQ) and preparative SDS-PAGE (Wrightsman, R. A. et al., J. Immunol., 153:3148-3154 (1994).

[1] = tested on: human bladder carcinoma T-24 cell line; experiment: IL-6 secretion by T-24 carcinoma cells (ELISA); type: cell-based; conditions: 24 hours culture
Protocol: (§1) Primary cultures of human intestinal microvascular endothelial cells (HIMEC) isolated from normal jejunal mucosa/submucosal tissue were prepared as described (Strong et al., Gastroenterology 114: 1244-1256 (1998)). The HIMEC were cultured in fibronectin-coated plasticware in MCDB medium (Sigma) supplemented with 20% FBS, 90 μg/ml heparin and 50 μg/ml endothelial cell growth factor (Sigma). T-24 cells (ATCC Accession No. HTB-4) were cultured in M199 medium supplemented with 10% FBS. PBMC were purified by Ficoll-Paque gradient as described (Current Protocols in Immunology, pp 7.1.1-7.1.2). Vero cells (ATCC Accession No. CCL-81) were grown in RPMI medium with 5% Nu serum and infected with the Silvio X-10/4 of T. cruzi as described previously (Chuenkova et al., J. Exp. Med. 181: 1693-1703, (1995)).
(§2) Endothelial cells and T-24 cells were plated on 24-well plates at a density of 1×10^3 cells/well, while peripheral blood mononuclear cells (PBMC) were plated in the similar wells at 1×10^6/well. Triplicat cultures of cells were incubated test agents for a predetermined amount of time. […] Cytokines and chemokines released in the culture supernatants were measured by ELISA assay following the instructions of the manufacturer (Endogen). The cytokines tested were IL-1β, IL-4, IL-8, IL-10, IL-12, IFN-γ, TNF-α, and the chemokines RANTES and MCP-1. Negative controls were cells incubated in medium containing polymixin B at 10 μg/ml, and positive controls were cells incubated with bacterial LPS at the low ng/ml range (for PBMC or HIMEC) or in the μg/ml range for carcinoma T-24 cells. In some experiments, IL-1β, or TNFα were used as positive control for cytokine release.

[2] = tested on: peripheral blood mononuclear cells (PBMC); experiment: IL-6 secretion by PBMC (ELISA); type: cell-based, human; set-up: IL-6 secretion by PBMC: dose or concentration left out as unconfirmed; conditions: 24 hrs culture
Protocol: as §1, §2
TR peptides (Table 2) were synthesized at the Tufts Synthesis Facility (Boston, Mass.). Each peptide was purified by HPLC, and the number of amino acids and molecular weight of each peptide verified by mass spectrometry. Peptides were dissolved in growth medium (10% FCS in RPMI) and added at various concentrations to 1×10^6 PBMC/well in 24-well plates. After 24 hrs, IL-6 was assayed by ELISA in the conditioned supernatants.

B1: TS-154: recombinant catalytically active trans-sialidase construct from clone 154 with 5 tandem repeat units (protein, listed as Trypanosoma cruzi)
chain: KKKQVFSKIFYSEDEGKTWKFGEGRSDFGCSEPVALEWEGKLIINTRVDYRRRLVYESSDMGNSWVEAVGTLSRVWGPSPKSNQPGSQSSFTAVTIEGMRVMLFTHPLNFKGRWLRDRLNLWLTDNQRIYNVGQVSIGDENSAYSSVLYKDDKLYCLHEINSNEVYSLVFARLVGELRIIKSVLQSWKNWDSHLSSICTP
trans-sialidase enzymatic activity (Trans-sialidase assay): enzymatically-active | IL-6 secretion by T-24 cells [1]: as powerful as enzymatically-inactive TS-H32 in stimulating IL-6 secretion | IL-6 secretion by PBMC [2]: as powerful as enzymatically-inactive TS-H32 in stimulating IL-6 secretion
